# The RNAGym collection of RNA variant scans (doi:10.1093/molbev/msab373)
# B1: Azoarcus group I ribozyme (parent)
# chain: GUGCCUUGCGCCGGGAAACCACGCAAGGGAUGGUGUCAAAUUCGGCGAAACCUAAGCGCCCGCCCGGGCGUAUGGCAACGCCGAGCCAAGCUUCGGCGCCUGCGCCGAUGAAGGUGUAGAGACUAGACGGCACCCACCUAAGGCAAACGCUAUGGUGAAGGCAUAGUCCAGGGAGUGGCGAAAGUCACACAAACCGG
# Variants of: B1
# Assay: reverse-splicing fitness (ratio to wild type); higher = more active; in vitro selection; Mg2+ level not given
# Method in brief: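 An in vitro group I ribozyme library with randomized positions was T7-transcribed and gel-purified. In triplicate, 10 pmol RNA in EPPS pH 7.5 was reacted with 50 pmoles of a 30-nt RNA substrate for 1 h at 37 °C across several added MgCl2 levels (1–48 mM), then stopped with EDTA. Products were reverse transcribed from a substrate-complementary primer, PCR-amplified and sequenced (HiSeq 4000). Fitness is a variant's read proportion after selection over that before, normalised to wild type.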
row,Variant,reverse-splicing fitness
1,GUGCCUUGCGCCGGGAAACCACGCAAGGGAUGGUGUCAAAUUCGGCGAAACCUAAGCGCCCGCCCGGGCGUAUGGCAACGCGGAGCCAAGCUUCGGCGCCUGCGCCGAUGCAGGUGUAGAGACUAGACGGCACCCACCUAAGGCCAACGAUAUGGUGAAGGCAUAGUCUAGGGAGUGGCGAAAGUCACACAAACCGG [C82G A111C A145C C150A C169U],0.00955
2,GUGCCUUGCGCCGGGAAACCACGCAAGGGAUGGUGUCAAAUUCGGCGAAACCUAAGCGCCCGCCCGGGCGUAUGGCAACGCGGAGCCAAGCUUCGGCGCCUGCGCCGAUGCAGGUGUAGAGACUAGACGGCACCCACCUAAGGCCAACGAUAUGGUGAAGGCAUAGUCGAGGGAGUGGCGAAAGUCACACAAACCGG [C82G A111C A145C C150A C169G],0.00856
3,GUGCCUUGCGCCGGGAAACCACGCAAGGGAUGGUGUCAAAUUCGGCGAAACCUAAGCGCCCGCCCGGGCGUAUGGCAACGCGGAGCCAAGCUUCGGCGCCUGCGCCGAUGCAGGUGUAGAGACUAGACGGCACCCACCUAAGGCCAACGAUAUGGUGAAGGCAUAGUCCAGGGAGAGGCGAAAGUCACACAAACCGG [C82G A111C A145C C150A U176A],0.0144
4,GUGCCUUGCGCCGGGAAACCACGCAAGGGAUGGUGUCAAAUUCGGCGAAACCUAAGCGCCCGCCCGGGCGUAUGGCAACGCGGAGCCAAGCUUCGGCGCCUGCGCCGAUGCAGGUGUAGAGACUAGACGGCACCCACCUAAGGCCAACGAUAUGGUGAAGGCAUAGUCCAGGGAGGGGCGAAAGUCACACAAACCGG [C82G A111C A145C C150A U176G],0.00879
5,GUGCCUUGCGCCGGGAAACCACGCAAGGGAUGGUGUCAAAUUCGGCGAAACCUAAGCGCCCGCCCGGGCGUAUGGCAACGCGGAGCCAAGCUUCGGCGCCUGCGCCGAUGCAGGUGUAGAGACUAGACGGCACCCACCUAAGGCCAACGAUAUGGUGAAGGCAUAGUCCAGGGAGCGGCGAAAGUCACACAAACCGG [C82G A111C A145C C150A U176C],0.0188
6,GUGCCUUGCGCCGGGAAACCACGCAAGGGAUGGUGUCAAAUUCGGCGAAACCUAAGCGCCCGCCCGGGCGUAUGGCAACGCGGAGCCAAGCUUCGGCGCCUGCGCCGAUGCAGGUGUAGAGACUAGACGGCACCCACCUAAGGCCAACGGUAUGGUGAAGGCAUAGUCCAGGGAGAGGCGAAAGUCACACAAACCGG [C82G A111C A145C C150G U176A],0.0132
7,GUGCCUUGCGCCGGGAAACCACGCAAGGGAUGGUGUCAAAUUCGGCGAAACCUAAGCGCCCGCCCGGGCGUAUGGCAACGCGGAGCCAAGCUUCGGCGCCUGCGCCGAUGCAGGUGUAGAGACUAGACGGCACCCACCUAAGGCCAACGGUAUGGUGAAGGCAUAGUCCAGGGAGCGGCGAAAGUCACACAAACCGG [C82G A111C A145C C150G U176C],0.0203
8,GUGCCUUGCGCCGGGAAACCACGCAAGGGAUGGUGUCAAAUUCGGCGAAACCUAAGCGCCCGCCCGGGCGUAUGGCAACGCGGAGCCAAGCUUCGGCGCCUGCGCCGAUGCAGGUGUAGAGACUAGACGGCACCCACCUAAGGCCAACGGUAUGGUGAAGGCAUAGUCCAGGGAGGGGCGAAAGUCACACAAACCGG [C82G A111C A145C C150G U176G],0.00447
9,GUGCCUUGCGCCGGGAAACCACGCAAGGGAUGGUGUCAAAUUCGGCGAAACCUAAGCGCCCGCCCGGGCGUAUGGCAACGCGGAGCCAAGCUUCGGCGCCUGCGCCGAUGCAGGUGUAGAGACUAGACGGCACCCACCUAAGGCCAACGAUAUGGUGAAGGCAUAGUCAAGGGAGCGGCGAAAGUCACACAAACCGG [C82G A111C A145C C150A C169A U176C],0.00947
10,GUGCCUUGCGCCGGGAAACCACGCAAGGGAUGGUGUCAAAUUCGGCGAAACCUAAGCGCCCGCCCGGGCGUAUGGCAACGCGGAGCCAAGCUUCGGCGCCUGCGCCGAUGCAGGUGUAGAGACUAGACGGCACCCACCUAAGGCCAACGAUAUGGUGAAGGCAUAGUCAAGGGAGAGGCGAAAGUCACACAAACCGG [C82G A111C A145C C150A C169A U176A],0.0136
11,GUGCCUUGCGCCGGGAAACCACGCAAGGGAUGGUGUCAAAUUCGGCGAAACCUAAGCGCCCGCCCGGGCGUAUGGCAACGCGGAGCCAAGCUUCGGCGCCUGCGCCGAUGCAGGUGUAGAGACUAGACGGCACCCACCUAAGGCCAACGAUAUGGUGAAGGCAUAGUCAAGGGAGGGGCGAAAGUCACACAAACCGG [C82G A111C A145C C150A C169A U176G],0.00782
12,GUGCCUUGCGCCGGGAAACCACGCAAGGGAUGGUGUCAAAUUCGGCGAAACCUAAGCGCCCGCCCGGGCGUAUGGCAACGCGGAGCCAAGCUUCGGCGCCUGCGCCGAUGCAGGUGUAGAGACUAGACGGCACCCACCUAAGGCCAACGAUAUGGUGAAGGCAUAGUCGAGGGAGGGGCGAAAGUCACACAAACCGG [C82G A111C A145C C150A C169G U176G],0.00878
13,GUGCCUUGCGCCGGGAAACCACGCAAGGGAUGGUGUCAAAUUCGGCGAAACCUAAGCGCCCGCCCGGGCGUAUGGCAACGCGGAGCCAAGCUUCGGCGCCUGCGCCGAUGCAGGUGUAGAGACUAGACGGCACCCACCUAAGGCCAACGAUAUGGUGAAGGCAUAGUCGAGGGAGCGGCGAAAGUCACACAAACCGG [C82G A111C A145C C150A C169G U176C],0.0224
14,GUGCCUUGCGCCGGGAAACCACGCAAGGGAUGGUGUCAAAUUCGGCGAAACCUAAGCGCCCGCCCGGGCGUAUGGCAACGCGGAGCCAAGCUUCGGCGCCUGCGCCGAUGCAGGUGUAGAGACUAGACGGCACCCACCUAAGGCCAACGAUAUGGUGAAGGCAUAGUCGAGGGAGAGGCGAAAGUCACACAAACCGG [C82G A111C A145C C150A C169G U176A],0.0237
15,GUGCCUUGCGCCGGGAAACCACGCAAGGGAUGGUGUCAAAUUCGGCGAAACCUAAGCGCCCGCCCGGGCGUAUGGCAACGCGGAGCCAAGCUUCGGCGCCUGCGCCGAUGCAGGUGUAGAGACUAGACGGCACCCACCUAAGGCCAACGGUAUGGUGAAGGCAUAGUCCAGGGAGUGGCGAAAGUCACACAAACCGG [C82G A111C A145C C150G],0.0271
